Broadly, the Kd is a measure of binding affinity in units of concentration. High values mean weaker binding, low ones tighter binding.

For one data set, the target named is T1, N-C3 (Homo sapiens, UniProt Q13018).
T1 construct: the N-terminus to and including CTLD3 (N-C3); no tag is printed; made in house; host or cells: HEK 293-EBNA1
Description: SPR kinetics of patient sera autoantibodies over immobilized N-C3. The settings on record: patient autoantibodies in sera binding to immobilized N-C3. The method, then: Quantitation of serum antibody concentrations was performed on the Proteon XPR-36 (Bio-Rad) SPR instrument where the initial binding rates of purified human anti-PLA2R binding to N-C3 were used as standard curve to determine the concentration of anti-PLA2R in the unknown serum samples.
On the technique in general: Surface plasmon resonance follows binding to a sensor surface in real time, without labels.

Data set [1] has as its system purified anti-PLA2R antibody. The settings on record: pH 6.2 (tight) vs pH 7.2 (extended).
For data set [2], the system named is human anti-PLA2R autoantibodies. Kind of data set: Western blotting of PLA2R fragments with human anti-PLA2R autoantibodies. The format is binding.
Data set [3] can be described thus: Sedimentation velocity (analytical ultracentrifugation). The format is physicochemical. The settings on record: for Frictional ratio (f/f0): from Mass derived from MALLS. Here is the method: The experiments were performed using double sector cells and a rotor speed of 74,500 g for N-C8 and 116,500 g for N-C3, taking 150 scans at 1.5 minutes intervals at a wavelength of 280 nm and at a temperature of 20° C. The sedimenting boundaries were analyzed using the program Sedfit v8.7.

Data set [4] can be described thus: Dual polarisation interferometry, pH dependent conformational change. The format is physicochemical. The settings on record: pH range 5.0 to 7.2 screened; thickness of protein layer. The method, then: Dual polarisation interferometry was used to provide quantitative information on the thickness, the refractive index and density of the immobilized PLA2R layer with the capability to measure conformational change in real time. The DPI experiments were performed on a Farfield AnaLight instrument. […] N-C8 and N-C3 were regenerated between the different pHs with running buffer pH 7.2. Analysis of the raw data and determination of density, thickness and mass per unit area was achieved using the AnaLight® Bio200 analysis software (Farfield Scientific).

The nature of data set [5]: Hydrodynamic radius from QELS. The format is physicochemical. Conditions: pH 7.4.
The subject of data set [6] is anti-PLA2R autoantibodies in patient sera. Description: N-C3 inhibition ELISA (autoantibody binding to N-C8). Also noted: species or system human. The settings on record: N-C3 9.0 μg ml-1; 43 PLA2R-positive sera. Here is the method: The ELISA method was a variation on the standard assay previously described. Briefly, PLA2R (N-C8) at 125 ng ml-1 was coated onto ELISA plates overnight and plates blocked with Superblock (Thermo Scientific). 50 μl of 1:100 dilution of patient serum plus 50 μl of either buffer or NC-3 fragment to give a final concentration in the well of 9.0 μg ml-1, 0.9 μg ml-1, 0.09 μg ml-1 and 0.009 μg ml-1 were preincubated for 2 hours at room temperature before adding to the ELISA plate for a further 2 hours with shaking. Following extensive washing, anti-human IgG-HRP at 1:25,000 dilution in assay buffer was added to all wells for 2 hour incubation. Following washing, the plate was developed by adding substrate and the reaction terminated at 5 minutes by addition of 1 M H2SO4. Plates were read at 450 nm and inhibition curves constructed. The concentration of 9.0 μg ml-1 was used to compare the inhibition profile of 43 different sera previous reported as anti-PLA2R positive.
(In an ELISA, binding on a coated surface is turned into a signal by an enzyme label.)

T1 sequence (Q13018 21-643 limits assumed): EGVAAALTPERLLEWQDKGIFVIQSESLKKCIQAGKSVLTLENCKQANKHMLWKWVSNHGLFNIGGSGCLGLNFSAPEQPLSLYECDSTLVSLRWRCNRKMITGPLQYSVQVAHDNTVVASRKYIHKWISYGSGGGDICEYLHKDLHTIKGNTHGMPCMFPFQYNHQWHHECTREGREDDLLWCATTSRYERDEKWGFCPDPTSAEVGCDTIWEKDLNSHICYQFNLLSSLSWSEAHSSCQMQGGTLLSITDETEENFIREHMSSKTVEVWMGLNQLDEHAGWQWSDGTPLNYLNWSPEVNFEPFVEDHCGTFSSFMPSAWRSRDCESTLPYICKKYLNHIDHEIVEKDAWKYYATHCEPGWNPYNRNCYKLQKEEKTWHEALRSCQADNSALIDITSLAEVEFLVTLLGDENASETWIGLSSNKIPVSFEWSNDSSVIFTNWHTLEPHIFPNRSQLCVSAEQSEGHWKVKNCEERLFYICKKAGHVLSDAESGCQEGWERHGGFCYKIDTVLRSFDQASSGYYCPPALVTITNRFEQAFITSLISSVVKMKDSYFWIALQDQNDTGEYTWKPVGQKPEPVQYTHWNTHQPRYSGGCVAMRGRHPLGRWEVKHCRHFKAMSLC

Substance “YLNHIDHEIVEKDAWK [compound 4, Linker between CTLD1 and CTLD2]” returned a Kd in the data set with N-C3 of 0.085 nM. This counts as picomolar.
The same measure, in the same setting: in the case of “EDDLLWCATTSR [compound 3, Fibronectin type II domain peptide]” it was 0.043 nM.
With “N-C8: recombinant full length extracellular PLA2R”, in data set [1], the “difference in affinity of anti-PLA2R binding between conformations” value is “no difference in affinity”. The “recognition by human anti-PLA2R autoantibodies” value (shortened to “recognition”) in data set [2] is “recognized”. Further, in data set [3] (pH 6.2), the “Sedimentation coefficient (S20, w)” value was found to be 9.23 ± 0.25; the sedimentation coefficient is recorded as 9.2 s; the “Frictional ratio (f/f0)” value is 1.32. In data set [3] (pH 7.2), this substance displayed a sedimentation coefficient of 8.1 s. Also, in data set [3] (pH 7.4), the “Sedimentation coefficient (S20, w)” value worked out at 8.08 ± 0.21 and the “Frictional ratio (f/f0)” value came to 1.51. For the same substance, the “pH region where the transition in conformation occurred” value in data set [4] is given as approximately 6.2 pH. The substance further had a Hydrodynamic radius in data set [5] of 6.25 ± 0.19 nm.
As for “N-C2: recombinant PLA2R fragment, the N-terminus to and including CTLD2”, the “recognition” value in data set [2] is recorded as “neither N-C2 nor C3 fragments were recognized”.
On to “YYATHCEPGWNPYNR [compound 5, Linker between CTLD1 and CTLD2]”, for which the Kd in the data set with N-C3 is 0.032 nM.
For “N-C3: recombinant PLA2R fragment, the N-terminus to and including CTLD3”, the “recognition” value in data set [2] is “recognized”. Moreover, the “Sedimentation coefficient (S20, w)” value is 5.35 ± 0.10 in data set [3] (pH 6.2) and 5.29 ± 0.09 in data set [3] (pH 7.4). The sedimentation coefficient in data set [3] (pH 6.2) and in data set [3] (pH 7.2) was 5.3 s each time. The “Frictional ratio (f/f0)” value is given as 1.39 in data set [3] (pH 6.2) and 1.38 in data set [3] (pH 7.4). The substance further showed a Hydrodynamic radius in data set [5] of 3.81 ± 0.23 nm. Also, in data set [6], the “patient sera in which binding of autoantibodies to N-C8 was effectively competed” value is listed as “approximately 90%”.
